# The supplement of paper PMC10567573
# ± gives the standard deviation.
# Assay: protein stability index of a GFP-peptide fusion (GPS, HEK-293T) (PSI 1-6); higher = more stable
# Settings: c terminus: a fixed tail appended
# 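Also: 24-mer peptide tiles fused after GFP, lentivirally expressed, FACS-sorted into six equal bins by GFP/DsRed ratio, decoded by Illumina sequencing, PSI is the read-weighted mean bin number.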
Sequence,protein stability index (treatment: DMSO),"protein stability index (treatment: MLN4924 1 uM, 8 h)"
TARAHPAKARDLYKGRQLQGCPGA [SMOC2],3.23 ± 0.64,4.41 ± 0.57
TAYIRVKVDGPRSPSYGRSRSRSR [SRSF1],3.75 ± 0.21,4 ± 0.29
TCISELRMLQREGCFRSQGASLRL [M1AP],2 ± 0.29,2.19 ± 0.37
TCQKFLIQYNRRQLLILLQNCTDE [POP5],2.73 ± 0.31,2.36 ± 0.21
TCVVPFDSEEEVIERANNVKYGLA [ALDH8A1],4.29 ± 0.33,4.41 ± 0.23
TCVYIAEIAPQHRRGLLVSLNELM [SLC2A12],2.73 ± 0.6,2.46 ± 0.56
TDGDHNVYPRPPEPREFSSRNFGV [ZC2HC1C],3.89 ± 0.23,3.97 ± 0.18
TDGRSPRRSRDPGYDHLWDETLSS [PLEKHN1],4.33 ± 0.24,4.45 ± 0.23
TDIDIDTLCAVLERDTLSIRESRL [BTBD1],2.84 ± 0.2,3.15 ± 0.37
TDSDDDFDMSRYSSSGYSSAEINQ [FAM219A],5.04 ± 0.21,5.22 ± 0.37
TDYINASFMDGYKQKNAYIGTQGP [PTPN9],2.94 ± 0.24,3.21 ± 0.21
TEFRKGAQSLPGPCAAAREGRLER [IRX6],4.53 ± 0.17,4.62 ± 0.21
TENRYCVQLSQIQGLIGSVEEQLA [KRT17],3.1 ± 0.51,3.24 ± 0.22
TGEIMHALKMTWHVHCFTCAACKT [PDLIM7],2.69 ± 0.33,2.27 ± 0.25
TGLSMIANGGAICAVTFFTILLSY [OR4A15],2.85 ± 0.28,3.16 ± 0.38
TILLDGRRVRLELWDTSGQGRFCT [RAB40C],2.16 ± 0.2,2.14 ± 0.34
TISSWRNDRMSTRHDGYATNDGNH [RBMY1A1],3.99 ± 0.23,4.02 ± 0.086
TKQWTLIAKHLKGRLGKQCRERWH [MYBL2],2.51 ± 0.68,2.26 ± 0.38
TLAGVGAQGAALEDPDYYGQEIWS [CPXM2],–,3.96 ± 0.11
TLHQRTHTEERPFKCNYCGKSFRQ [ZNF449],2.55 ± 0.33,2.91 ± 0.51
TLLAIGTKLPENQAIQMRLVDVAC [INTS4],2.12 ± 0.19,2.09 ± 0.15
TLLQDHENQRLFEMLGRKCLTLAT [WAS],2.37 ± 0.29,2.33 ± 0.28
TLQNGRRHIHHLGNQLQLNQHCLD [BRF1],3.1 ± 0.034,3.31 ± 0.097

Sequence,protein stability index (treatment: DMSO),"protein stability index (treatment: MLN4924 1 uM, 8 h)"
TLVQDLANAFQQEAQTSGKERLLL [CHIT1],3.16 ± 0.3,2.91 ± 0.19
TMLKAMFSGRMEVLTDSEGWILID [KCTD10],2.51 ± 0.57,2.75 ± 0.46
TNLVLPSNGSMHNYCPQQTKITSA [EDNRA],3.75 ± 0.13,3.63 ± 0.14
TNTGPAGSSASTSPAPLDTCPSSS [DYRK1B],5.24 ± 0.17,5.31 ± 0.18
TPATTTEPPKPTFPAYTQSTASTT [ZNF207],4.99 ± 0.12,5.1 ± 0.15
TPTPQALYPDLSCPEGLEELLSAP [SPSB2],4.54 ± 0.24,4.55 ± 0.3
TQEPIFTFTASFSGKVFPFFAVWK [TRIM15],3.19 ± 0.36,2.89 ± 0.66
TQIGFADLMGVLTKGVREVERALQ [FEM1A],2.29 ± 0.61,2.28 ± 0.45
TQQFKAEKLKEKLKMKEREEAWVK [PPP2R5C],3.26 ± 0.64,3.72 ± 0.62
TQRPAMVQTEDQYQFSYRAALEYL [PTPRD],2.91 ± 0.35,3.06 ± 0.31
TRCKSSEEKKPGELKRLVESRRQQ [TRIM39],5 ± 0.32,5.02 ± 0.27
TSGKRYVYRFVCDLQNLLGFTPEE [ETS2],2.56 ± 0.63,2.89 ± 0.84
TSRAPSTYTYTSRPRALPCQRSRY [RSPH3],3.65 ± 0.15,3.84 ± 0.31
TSVEECSQKGCLALSLLELLGFNL [CLCN6],2.57 ± 0.68,2.37 ± 0.15
TSYTRQACLVSCFQQLMVETCSCG [SCNN1D],2.48 ± 0.53,2.31 ± 0.27
TTGSKELDKLLQGGIETGSITEMF [RAD51],3.51 ± 0.27,3.76 ± 0.51
TTSETQKSVQCGTWTKHAEGGIFT [NETO1],3.59 ± 0.085,3.62 ± 0.23
TTTSAATATTAPPALDIFGDLFES [SNAP91],4.47 ± 0.1,4.68 ± 0.16
TVCGDLHGQLDDLIFIFYKNGLPS [PPEF2],2.87 ± 2.1,1.94 ± 0.41
TVECYNPRTNEWTYVAKMSEPHYG [KLHL13],2.36 ± 0.1,2.52 ± 0.72
TVPGQALACGSNRFNKLGLDHLSL [NEK8],2.44 ± 0.34,2.45 ± 0.12
TVTSVSCCHGNTLLAVRSVTDEPV [NEK8],3.21 ± 0.23,3.14 ± 0.33
